Assay results: patent US11732029B2, “Methods and compositions for the treatment of wounds” (The University of Chicago, priority 2017, dated 2023)

T1: VEGF-A165 (Homo sapiens, UniProt P15692)
T1 construct: All growth factors (GFs) and chemokines were purchased in their mature forms; purchased PeproTech; host or cells: Escherichia coli
T1 sequence (P15692 27-191 isoform P15692-4 limits assumed): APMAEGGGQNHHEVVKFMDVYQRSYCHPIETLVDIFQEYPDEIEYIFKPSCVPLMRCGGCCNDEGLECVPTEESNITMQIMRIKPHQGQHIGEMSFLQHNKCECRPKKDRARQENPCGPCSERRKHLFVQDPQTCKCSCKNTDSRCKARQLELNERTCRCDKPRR

T2: PlGF-1 (Homo sapiens, UniProt P49763)
T2 sequence (P49763 19-149 isoform P49763-2 limits assumed): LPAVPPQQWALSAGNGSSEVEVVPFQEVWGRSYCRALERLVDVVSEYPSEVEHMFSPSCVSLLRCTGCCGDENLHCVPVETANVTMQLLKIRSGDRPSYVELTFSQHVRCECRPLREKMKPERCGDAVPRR

T3: PlGF-2 (Homo sapiens, UniProt P49763)
T3 sequence (P49763 19-170 isoform P49763-3 limits assumed): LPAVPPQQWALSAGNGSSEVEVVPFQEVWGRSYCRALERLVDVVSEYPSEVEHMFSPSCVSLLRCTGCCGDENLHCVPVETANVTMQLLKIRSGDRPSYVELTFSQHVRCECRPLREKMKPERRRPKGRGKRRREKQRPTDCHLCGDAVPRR

T4: VEGF-A121 (Homo sapiens, UniProt P15692)
T4 sequence (P15692 27-147 isoform P15692-9 limits assumed): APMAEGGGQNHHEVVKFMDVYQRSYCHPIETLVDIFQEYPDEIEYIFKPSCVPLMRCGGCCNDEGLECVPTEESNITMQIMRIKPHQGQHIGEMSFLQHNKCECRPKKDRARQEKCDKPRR

B1: α32928-3150: recombinant human laminin alpha 3 LG domain Ser2928-Cys3150 (linker domain and LG4 domain), 6 His (protein)
chain: HHHHHHSLNKPPFLMLLKGSTRFNKTKTFRINQLLQDTPVASPRSVKVWQDACSPLPKTQANHGALQFGDIPTSHLLFKLPQELLKPRSQFAVDMQTTSSRGLVFHTGTKNSFMALYLSKGRLVFALGTDGKKLRIKSKEKCNDGKWHTVVFGHDGEKGRLVVDGLRAREGSLPGNSTISIRAPVYLGSPPSGKPKSLPTNSFVGCLKNFQLDSKPLYTPSSSFGVSSC
B2: α53026-3482: laminin alpha 5 LG domain recombinant protein (LD BioPharma) (protein)
chain: AIQVFLLGGSRKRVLVRVERATVYSVEQDNDLELADAYYLGGVPPDQLPPSLRRLFPTGGSVRGCVKGIKALGKYVDLKRLNTTGVSAGCTADLLVGRAMTFHGHGFLRLALSNVAPLTGNVYSGFGFHSAQDSALLYYRASPDGLCQVSLQQGRVSLQLLRTEVKTQAGFADGAPHYVAFYSNATGVWLYVDDQLQQMKPHRGPPPELQPQPEGPPRLLLGGLPESGTIYNFSGCISNVFVQRLLGPQRVFDLQQNLGSVNVSTGCAPALQAQTPGLGPRGLQATARKASRRSRQPARHPACMLPPHLRTTRDSYQFGGSLSSHLEFVGILARHRNWPSLSMHVLPRSSRGLLLFTARLRPGSPSLALFLSNGHFVAQMEGLGTRLRAQSRQRSRPGRWHKVSVRWEKNRILLVTDGARAWSQEGPHRQHQGAEHPQPHTLFVGGLPASSHSSKLP
B3: α4826-1816: laminin alpha 4 LG domain recombinant protein (R&D systems) (protein)
chain: QVSMMFDGQSAVEVHSRTSMDDLKAFTSLSLYMKPPVKRPELTETADQFILYLGSKNAKKEYMGLAIKNDNLVYVYNLGTKDVEIPLDSKPVSSWPAYFSIVKIERVGKHGKVFLTVPSLSSTAEEKFIKKGEFSGDDSLLDLDPEDTVFYVGGVPSNFKLPTSLNLPGFVGCLELATLNNDVISLYNFKHIYNMDPSTSVPCARDKLAFTQSRAASYFFDGSGYAVVRDITRRGKFGQVTRFDIEVRTPADNGLILLMVNGSMFFRLEMRNGYLHVFYDFGFSGGPVHLEDTLKKAQINDAKYHEISIIYHNDKKMILVVDRRHVKSMDNEKMKIPFTDIYIGGAPPEILQSRALRAHLPLDINFRGCMKGFQFQKKDFNLLEQTETLGVGYGCPEDSLISRRAYFNGQSFIASIQKISFFDGFEGGFNFRTLQPNGLLFYYASGSDVFSISLDNGTVIMDVKGIKVQSVDKQYNDGLSHFVISSVSPTRYELIVDKSRVGSKNPTKGKIEQTQASEKKFYFGGSPISAQYANFTGCISNAYFTRVDRDVEVEDFQRYTEKVHTSLYECPIESSPLFLLHKKGKNLSKPKASQNKKGGKSKDAPSWDPVALKLPERNTPRNSHCHLSNSPRAIEHAYQYGGTANSRQEFEHLKGDFGAKSQFSIRLRTRSSHGMIFYVSDQEENDFMTLFLAHGRLVYMFNVGHKKLKIRSQEKYNDGLWHDVIFIRERSSGRLVIDGLRVLEESLPPTEATWKIKGPIYLGGVAPGKAVKNVQINSIYSFSGCLSNLQLNGASITSASQTFSVTPCFEGPMETGTYFSTEGGYVVLDESFNIGLKFEIAFEVRPRSSSGTLVHGHSVNGEYLNVHMKNGQVIVKVNNGIRDFSTSVTPKQSLCDGRWHRITVIRDSNVVQLDVDSEVNHVVGPLNPKPIDHREPVFVGGVPESLLTPRLAPSKPFTGCIRHFVIDGHPVSFSKAALVSGAVSINSCPAA

How the values were obtained:
[1] = molecular target: T5, PDGF-BB (Homo sapiens, UniProt P01127); experiment: Surface plasmon resonance, laminin against GF; settings: SPR; laminin protein immobilized on chip, GF flowed; Langmuir binding kinetics
T5 construct: All growth factors (GFs) and chemokines were purchased in their mature forms; purchased PeproTech; host or cells: Escherichia coli
T5 sequence (P01127 82-190 limits assumed): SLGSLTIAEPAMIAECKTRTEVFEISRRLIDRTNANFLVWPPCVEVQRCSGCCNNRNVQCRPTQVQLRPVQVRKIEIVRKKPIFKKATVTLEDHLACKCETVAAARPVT
Procedure: (§1) SPR analysis was performed as described previously^2. In brief, measurements were made with a Biacore 3000 SPR system (GE Healthcare). Laminin-521 or laminin α32928-3150 was immobilized via amine coupling on a C1 chip (GE Healthcare) for ˜2000 or ˜1000 resonance units (RU), respectively, according to the manufacturer's instructions. VEGF-A165, PDGF-BB, or PlGF-2 was flowed at increasing concentrations in the running buffer at 20 μL/min. The sensor chip was regenerated with 50 mM NaOH for every cycle. Specific bindings of GFs to laminin were calculated by comparison to a non-functionalized channel used as a reference. Experimental results were fitted with Langmuir binding kinetics using BIAevaluation software (GE Healthcare).

[2] = molecular target: T1, VEGF-A165; experiment: Surface plasmon resonance, laminin against GF; settings: SPR; laminin protein immobilized on chip, GF flowed; Langmuir binding kinetics
Procedure: as §1

[3] = molecular target: T5, PDGF-BB; experiment: GF binding to recombinant laminin LG domain protein and synthesized laminin HBD peptides (ELISA); settings: plate coated with LG domain protein or peptide, 1 μg/mL GF, vs BSA-coated wells
Procedure: (§2) ELISA tests were performed as described above. In brief, ELISA plates were coated with 1 μg/mL of laminin alpha 3 LG domain recombinant protein, laminin alpha 4 LG domain recombinant protein (R&D systems), laminin alpha 5 LG domain recombinant protein (LD BioPharma), or laminin peptide (sequences are described in Table 1, chemically synthesized by Genscript) in PBS for 2 hrs at 37° C. 1 μg/mL of BSA served as non-binding protein control. After blocking with 2% BSA PBS-0.05% Tween 20 (PBS-T) solution, 1 μg/mL of the recombinant human proteins (VEGF-A121, VEGF-A165, PlGF-1, PlGF-2, PDGF-BB or FGF-2) or 10 μg/mL of biotinylated heparin (Sigma-Aldrich) were added. Bound GF was detected with biotinylated antibodies for human VEGF, PlGF, PDGF-BB, or FGF-2 (R&D Systems). The antibodies were detected by streptavidin-HRP (R&D Systems).

[4] = molecular target: T1, VEGF-A165; experiment: as above; settings: plate coated with LG domain protein or peptide, 1 μg/mL GF, vs BSA-coated wells
Procedure: as §2

[5] = molecular target: FGF-2 (Homo sapiens, UniProt P09038); experiment: as above; design: All growth factors (GFs) and chemokines were purchased in their mature forms; purchased PeproTech; host or cells: Escherichia coli; settings: plate coated with LG domain protein or peptide, 1 μg/mL GF, vs BSA-coated wells
FGF-2, sequence (P09038 143-288): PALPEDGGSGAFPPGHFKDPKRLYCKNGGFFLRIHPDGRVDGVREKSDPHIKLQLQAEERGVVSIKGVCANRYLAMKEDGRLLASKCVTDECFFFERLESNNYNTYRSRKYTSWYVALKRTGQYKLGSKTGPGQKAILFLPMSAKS
Procedure: as §2

[6] = molecular target: T2, PlGF-1; experiment: as above; design: All growth factors (GFs) and chemokines were purchased in their mature forms; purchased PeproTech; host or cells: Escherichia coli; settings: plate coated with LG domain protein or peptide, 1 μg/mL GF, vs BSA-coated wells
Procedure: as §2

[7] = molecular target: T3, PlGF-2; experiment: as above; design: All growth factors (GFs) and chemokines were purchased in their mature forms; purchased PeproTech; host or cells: Escherichia coli; settings: plate coated with LG domain protein or peptide, 1 μg/mL GF, vs BSA-coated wells
Procedure: as §2

[8] = molecular target: T4, VEGF-A121; experiment: as above; design: All growth factors (GFs) and chemokines were purchased in their mature forms; purchased PeproTech; host or cells: Escherichia coli; settings: plate coated with LG domain protein or peptide, 1 μg/mL GF, vs BSA-coated wells
Procedure: as §2

| Molecule | Kd [1] [nM] | Kd [2] [nM] | binding to PDGF-BB [3] | binding to VEGF-A165 [4] | binding to FGF-2 [5] | binding to PlGF-1 [6] | binding to PlGF-2 [7] | binding to VEGF-A121 [8] |
| --- | --- | --- | --- | --- | --- | --- | --- | --- |
| B1 | 10.2 | 1.2 | bound | bound | bound | did not show any binding | bound | did not show any binding |
| B2 |  |  | bound | bound | bound | did not show any binding | bound | did not show any binding |
| B3 |  |  | bound | bound | bound | did not show any binding | bound | did not show any binding |
